According to paper PMC5505021:

Target: heat shock protein 90β (African green monkey (endogenous in Vero))
Test: flow cytometry on cells

## Japanese encephalitis virus strain SA14, purified viral particles (complex)
  percentage of HSP90β-JEV binding by FCM (0 μg/ml anti-HSP90β mAb): 76.2%
  percentage of HSP90β-JEV binding by FCM (with 20 μg/ml anti-HSP90β mAb): 19.1%
  percentage of HSP90β-JEV binding by FCM (with 100 μg/ml anti-HSP90β mAb): 10.4%
